Experiments:
[1] = target: PDL1 expressed on recombinant CHO cells (CHO-K1/PDL1; aAPC CHO-PDL1) (UniProt Q9NZQ7)
PDL1 (Fc-cut) antigen [2] = target: PDL1 (Fc-cut) antigen (UniProt Q9NZQ7); assay: ELISA on coated PDL1 (Fc-cut), VHH secondary antibody; PBS blank 0.181 / 0.212
PDL1 (Fc-cut) antigen [3] = target: PDL1 (Fc-cut) antigen (UniProt Q9NZQ7); assay: ELISA on coated PDL1 (Fc-cut), IgG (H+L) secondary antibody; PBS blank 0.121 / 0.102

Sequence of PDL1 (Fc-cut) antigen (Q9NZQ7 19-238 limits assumed): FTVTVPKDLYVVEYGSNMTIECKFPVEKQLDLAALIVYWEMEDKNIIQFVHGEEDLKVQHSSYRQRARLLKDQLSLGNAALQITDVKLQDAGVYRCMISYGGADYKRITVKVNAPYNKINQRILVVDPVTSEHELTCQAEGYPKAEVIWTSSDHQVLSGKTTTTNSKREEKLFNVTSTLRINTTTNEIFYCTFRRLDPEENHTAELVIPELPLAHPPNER
Sequence of PDL1 expressed on recombinant CHO cells (CHO-K1/PDL1; aAPC CHO-PDL1) (Q9NZQ7 19-290 limits assumed): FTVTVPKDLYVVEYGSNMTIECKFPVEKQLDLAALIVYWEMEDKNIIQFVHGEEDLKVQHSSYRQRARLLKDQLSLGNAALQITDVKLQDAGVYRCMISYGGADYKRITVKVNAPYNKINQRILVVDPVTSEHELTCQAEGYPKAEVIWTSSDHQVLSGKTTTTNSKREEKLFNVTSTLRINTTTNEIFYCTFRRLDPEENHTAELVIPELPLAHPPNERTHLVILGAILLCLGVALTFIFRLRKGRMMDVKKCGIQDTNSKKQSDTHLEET

## Atezolizumab (antibody)
[1]
  EC50 of the PD1/PDL1 Block Assay (luciferase fold of induction, Jurkat-PD-1-NFAT-Luc + aAPC CHO-PDL1): 6.04 µg/mL

## Unimmunized serum
PDL1 (Fc-cut) antigen [2]
  OD450, serum 1:1K, well 1 of 2: 0.176
  OD450, serum 1:1K, well 2 of 2: 0.166
  OD450, serum 1:2K, well 1 of 2: 0.194
  OD450, serum 1:2K, well 2 of 2: 0.213
  OD450, serum 1:4K, well 1 of 2: 0.207
  OD450, serum 1:4K, well 2 of 2: 0.236
  OD450, serum 1:8K, well 1 of 2: 0.205
  OD450, serum 1:8K, well 2 of 2: 0.236
  OD450, serum 1:16K, well 1 of 2: 0.232
  OD450, serum 1:16K, well 2 of 2: 0.249
  OD450, serum 1:32K, well 1 of 2: 0.224
  OD450, serum 1:32K, well 2 of 2: 0.253
  OD450, serum 1:64K, well 1 of 2: 0.201
  OD450, serum 1:64K, well 2 of 2: 0.224
PDL1 (Fc-cut) antigen [3]
  OD450, serum 1:1K, well 1 of 2: 0.189
  OD450, serum 1:1K, well 2 of 2: 0.176
  OD450, serum 1:2K, well 1 of 2: 0.145
  OD450, serum 1:2K, well 2 of 2: 0.159
  OD450, serum 1:4K, well 1 of 2: 0.124
  OD450, serum 1:4K, well 2 of 2: 0.12
  OD450, serum 1:8K, well 1 of 2: 0.107
  OD450, serum 1:8K, well 2 of 2: 0.116
  OD450, serum 1:16K, well 1 of 2: 0.118
  OD450, serum 1:16K, well 2 of 2: 0.12
  OD450, serum 1:32K, well 1 of 2: 0.125
  OD450, serum 1:32K, well 2 of 2: 0.118
  OD450, serum 1:64K, well 1 of 2: 0.141
  OD450, serum 1:64K, well 2 of 2: 0.115

From patent US20250136695A1
